Measured values: IntAct's records for PubMed 18787122

B1: Secreted effector protein SifA (Salmonella typhimurium), Q56061 (parent)
chain: MPITIGNGFLKSEILTNSPRNTKEAWWKVLWEKIKDFFFSTGKAKADRCLHEMLFAERAPTRERLTEIFFELKELACASQRDRFQVHNPHENDATIILRIMDQNEENELLRITQNTDTFSCEVMGNLYFLMKDRPDILKSHPQMTAMIKRRYSEIVDYPLPSTLCLNPAGAPILSVPLDNIEGYLYTELRKGHLDGWKAQEKATYLAAKIQSGIEKTTRILHHANISESTQQNAFLETMAMCGLKQLEIPPPHTHIPIEKMVKEVLLADKTFQAFLVTDPSTSQSMLAEIVEAISDQVFHAIFRIDPQAIQKMAEEQLTTLHVRSEQQSGCLCCFL
partner: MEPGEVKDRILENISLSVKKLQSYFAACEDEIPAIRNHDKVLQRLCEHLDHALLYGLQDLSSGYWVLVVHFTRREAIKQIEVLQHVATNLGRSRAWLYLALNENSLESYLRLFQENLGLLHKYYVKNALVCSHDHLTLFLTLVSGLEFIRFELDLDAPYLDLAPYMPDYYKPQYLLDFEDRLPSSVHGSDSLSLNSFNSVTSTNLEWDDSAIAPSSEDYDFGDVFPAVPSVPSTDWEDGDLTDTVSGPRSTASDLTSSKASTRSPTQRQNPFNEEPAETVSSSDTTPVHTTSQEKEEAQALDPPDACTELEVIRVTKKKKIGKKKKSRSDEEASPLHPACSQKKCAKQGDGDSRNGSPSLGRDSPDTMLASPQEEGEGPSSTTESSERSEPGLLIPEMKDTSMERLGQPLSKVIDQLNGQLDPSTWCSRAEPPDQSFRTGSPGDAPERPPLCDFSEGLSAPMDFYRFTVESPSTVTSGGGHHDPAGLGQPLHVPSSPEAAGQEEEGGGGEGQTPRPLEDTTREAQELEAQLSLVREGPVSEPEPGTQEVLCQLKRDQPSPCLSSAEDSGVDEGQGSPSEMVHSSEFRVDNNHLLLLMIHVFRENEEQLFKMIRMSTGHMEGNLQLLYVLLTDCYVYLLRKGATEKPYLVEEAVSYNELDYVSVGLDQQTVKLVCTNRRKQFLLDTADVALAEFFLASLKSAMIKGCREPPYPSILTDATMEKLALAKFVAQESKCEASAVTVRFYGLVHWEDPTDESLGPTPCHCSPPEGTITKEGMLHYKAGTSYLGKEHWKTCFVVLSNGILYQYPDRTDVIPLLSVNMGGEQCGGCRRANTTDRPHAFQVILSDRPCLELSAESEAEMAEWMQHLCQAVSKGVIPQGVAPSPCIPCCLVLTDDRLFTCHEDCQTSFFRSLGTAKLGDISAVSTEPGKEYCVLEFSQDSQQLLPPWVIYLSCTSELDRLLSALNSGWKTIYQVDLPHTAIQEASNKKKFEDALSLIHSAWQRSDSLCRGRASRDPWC

Variants of: B1
Conditions: with pkhm2_human PLEKHM2, Q8IWE5

Variant | effect of a mutation on the interaction
MPITIGNGFLKSEILTNSPRNTKEAWWKVLWEKIKDFFFSTGKAKADRCLHEMLFAERAPTRERLTEIFFELKELACASQRDRFQVHNPHENDATIILRIMDQNEENELLRITQNTDTFSCEVMGNLYFLMKDRPDILKSHPQMTAMIKRRYSEIVDYPLPSTLCLNPAGAPILSVPLDNIEGYLYTELRKGHLDGAKAQAKATYLAAKIQSGIEKTTRILHHANISESTQQNAFLETMAMCGLKQLEIPPPHTHIPIEKMVKEVLLADKTFQAFLVTDPSTSQSMLAEIVEAISDQVFHAIFRIDPQAIQKMAEEQLTTLHVRSEQQSGCLCCFL [W197A;E201A] | decreasing interaction
